From patent US20100311669A1
Positions of bridges follow the written chain, without caps; N, C: chain ends. No end group written: not given here.

Target: Recombinant purified HER2 receptor composed of the ectodomain of HER2 fused to the Fc of human IgG (human) (UniProt P04626)
Test: SPR (Biacore 3000), HER2-Fc immobilized, peptide as analyte, 25 C

Kd: 760 nM
koff: 0.000701 s⁻¹
kon: 922 M⁻¹ s⁻¹
Binder: FCGDGFYACYMDV-OH (disulfide 2-9) [AHNP analogue 8, …-OH (cyclic)]
